The numbers were not newly measured in paper PMC4385930, which cites them from elsewhere.

Targets include Bak BH3 (Homo sapiens) (UniProt Q16611); Bim BH3 (Homo sapiens) (UniProt O43521); Bax BH3 (Homo sapiens) (UniProt Q07812).

For the substance F1L (from UniProt P24356), the Kd is 4300 nM with Bak BH3 (Homo sapiens), 200 nM with Bim BH3 (Homo sapiens) and 2000 nM with Bax BH3 (Homo sapiens).

One may read the Kd as the free concentration of one partner at which half of the binding sites on the other are occupied at equilibrium, for simple one-to-one binding.
